Experimental data taken from US20220267796A1.

Columns and labels:
[1] = molecular target: AAV8 (recombinant adeno-associated virus serotype 8 particles, capsid of VP1, VP2 and VP3 of AAV8) (adeno-associated virus 8 (AAV8)); test: affinity chromatography on AAVX column, +2-8° C., 100 mM NaAcetate/0.1% Tween 80 pH 6.0; AAV8 ELISA of fraction
[2] = molecular target: AAV9 (recombinant adeno-associated virus serotype 9 particles, capsid of VP1, VP2 and VP3 of AAV9) (adeno-associated virus 9 (AAV9)); test: batch adsorption, 0.2 g resin + 9.6 g LOAD, 15 to 16 h at +2° C. to +8° C.; AAV9 ELISA of supernatant
[3] = molecular target: AAV8 (recombinant adeno-associated virus serotype 8 particles, capsid of VP1, VP2 and VP3 of AAV8) (adeno-associated virus 8 (AAV8)); test: affinity chromatography on AAVX column, +2-8° C., ELT-buffer pH 7.0; AAV8 ELISA of fraction
[4] = molecular target: AAV9 (recombinant adeno-associated virus serotype 9 particles, capsid of VP1, VP2 and VP3 of AAV9) (adeno-associated virus 9 (AAV9)); test: affinity chromatography on AAVX column, +22-28° C., 100 mM NaAcetate/0.1% Tween 80 pH 6.0; AAV9 ELISA of fraction
[5] = molecular target: AAV9 (recombinant adeno-associated virus serotype 9 particles, capsid of VP1, VP2 and VP3 of AAV9) (adeno-associated virus 9 (AAV9)); test: batch adsorption, 0.2 g resin + 9.6 g LOAD, 15 to 16 h at +18° C. to +30° C., 125 mM NaCl/50 mM Tris HCl pH 8.5; AAV9 ELISA of supernatant
[6] = molecular target: AAV8 (recombinant adeno-associated virus serotype 8 particles, capsid of VP1, VP2 and VP3 of AAV8) (adeno-associated virus 8 (AAV8)); test: affinity chromatography on AAVX column, gradient 1 mM to 20 mM HCl/200 mM NaCl at +2-8° C.; AAV8 ELISA of pooled fraction
[7] = molecular target: AAV8 (recombinant adeno-associated virus serotype 8 particles, capsid of VP1, VP2 and VP3 of AAV8) (adeno-associated virus 8 (AAV8)); test: affinity chromatography on AAVX column, +2-8° C., 125 mM NaCl/50 mM TrisHCl pH 8.5; AAV8 ELISA of fraction
[8] = molecular target: AAV8 (recombinant adeno-associated virus serotype 8 particles, capsid of VP1, VP2 and VP3 of AAV8) (adeno-associated virus 8 (AAV8)); test: affinity chromatography on AAVX column, +18-26° C., 125 mM NaCl/50 mM TrisHCl pH 8.5; AAV8 ELISA of fraction (load 23.2 x 10^11 cp/ml)
[9] = molecular target: AAV9 (recombinant adeno-associated virus serotype 9 particles, capsid of VP1, VP2 and VP3 of AAV9) (adeno-associated virus 9 (AAV9)); test: affinity chromatography on AAVX column, +22-28° C., 125 mM NaCl/50 mM TrisHCl pH 8.5; AAV9 ELISA of fraction
[10] = molecular target: AAV9 (recombinant adeno-associated virus serotype 9 particles, capsid of VP1, VP2 and VP3 of AAV9) (adeno-associated virus 9 (AAV9)); test: affinity chromatography on AAVX column, elution at +2-8° C. with 100 mM NaAcetate/0.1% Tween 80 pH 6.0; AAV9 ELISA of fraction
[11] = molecular target: AAV9 (recombinant adeno-associated virus serotype 9 particles, capsid of VP1, VP2 and VP3 of AAV9) (adeno-associated virus 9 (AAV9)); test: batch adsorption at room temperature, then 30 min in 1 ml cold 125 mM NaCl/50 mM Tris HCl pH 8.5 at +2° C. to +8° C.; AAV9 ELISA of supernatant
[12] = molecular target: AAV9 (recombinant adeno-associated virus serotype 9 particles, capsid of VP1, VP2 and VP3 of AAV9) (adeno-associated virus 9 (AAV9)); test: affinity chromatography on AAVX column, standard elution at +18-26° C. with 100 mM Glycine, 200 mM NaCl pH 2.7; AAV9 ELISA of fraction
[13] = molecular target: AAV8 (recombinant adeno-associated virus serotype 8 particles, capsid of VP1, VP2 and VP3 of AAV8) (adeno-associated virus 8 (AAV8)); test: affinity chromatography on AAVX column, +18-26° C., 100 mM NaAcetate/0.1% Tween 80 pH 6.0; AAV8 ELISA of fraction
[14] = molecular target: AAV9 (recombinant adeno-associated virus serotype 9 particles, capsid of VP1, VP2 and VP3 of AAV9) (adeno-associated virus 9 (AAV9)); test: affinity chromatography on AAVX column, gradient 1 mM to 20 mM HCl/200 mM NaCl at +2-8° C.; AAV9 ELISA of fraction
[15] = molecular target: AAV8 (recombinant adeno-associated virus serotype 8 particles, capsid of VP1, VP2 and VP3 of AAV8) (adeno-associated virus 8 (AAV8)); test: affinity chromatography on AAVX column, +18-26° C., 125 mM NaCl/50 mM TrisHCl pH 8.5; AAV8 ELISA of fraction
[16] = molecular target: AAV9 (recombinant adeno-associated virus serotype 9 particles, capsid of VP1, VP2 and VP3 of AAV9) (adeno-associated virus 9 (AAV9)); test: affinity chromatography on AAVX column, strip at +2-8° C. with 100 mM Glycine, 200 mM NaCl pH 2.0; AAV9 ELISA of fraction
[17] = molecular target: AAV9 (recombinant adeno-associated virus serotype 9 particles, capsid of VP1, VP2 and VP3 of AAV9) (adeno-associated virus 9 (AAV9)); test: affinity chromatography on AAVX column, elution at +2-8° C. with 125 mM NaCl/50 mM TrisHCl pH 8.5; AAV9 ELISA of fraction
[18] = molecular target: AAV9 (recombinant adeno-associated virus serotype 9 particles, capsid of VP1, VP2 and VP3 of AAV9) (adeno-associated virus 9 (AAV9)); test: affinity chromatography on AAVX column, +22-28° C., 125 mM NaCl/50 mM TrisHCl pH 8.5; AAV9 ELISA of fraction (load 2.86 x 10^11 cp/ml)

## POROS CaptureSelect AAVX Affinity Resin (Cat. No. 36742; Thermo Fisher), immobilised affinity ligand
[1]
  AAV8 Antigen cp/ml in low temperature eluate 1: < 1.59e+09 cp/ml
[2]
  % AAV9 Antigen in supernatant (not bound) after incubation at low temperature: 63.7%
[3]
  AAV8 Antigen cp/ml in low temperature eluate 2: < 1.59e+09 cp/ml
[4]
  AAV9 Antigen [%] of load found in wash 2: 0.04%
  AAV9 Antigen cp/ml in wash 2: < 3.8e+09 cp/ml
  AAV9 Antigen cp/ml in wash 4: < 3.8e+09 cp/ml
[5]
  % AAV9 Antigen in supernatant (not bound) after incubation at room temperature: 6.2%
[6]
  AAV8 Antigen [%] of load released by acidic gradient: 75.8%
[7]
  AAV8 Antigen cp/ml in low temperature eluate 3: < 1.59e+09 cp/ml
[8]
  AAV8 Antigen cp/ml in flow-through/wash 1 (not bound): < 1.59e+09 cp/ml
[9]
  AAV9 Antigen [%] of load found in flow-through/wash 1 (not bound): 1.76%
  AAV9 Antigen [%] of load found in wash 3: 0.04%
  AAV9 Antigen cp/ml in wash 3: < 3.8e+09 cp/ml
[10]
  AAV9 Antigen [%] of load released in low temperature eluate 1: 61.2%
[11]
  % AAV9 Antigen in eluate (released at low temperature): 36.7%
[12]
  AAV9 Antigen [%] of load released by acidic elution: 81.5%
[13]
  AAV8 Antigen cp/ml in wash 2: < 1.59e+09 cp/ml
  AAV8 Antigen cp/ml in wash 4: < 1.59e+09 cp/ml
[14]
  AAV9 Antigen [%] of load released by acidic gradient: 5.42%
[15]
  AAV8 Antigen cp/ml in wash 3: < 1.59e+09 cp/ml
[16]
  AAV9 Antigen [%] of load released only by acidic strip: 16.9%
[17]
  AAV9 Antigen [%] of load released in low temperature eluate: 44.8%
  AAV9 Antigen [%] of load released in low temperature eluate 3: 11.6%
[18]
  AAV9 Antigen cp/ml in flow-through/wash 1 (not bound): < 3.8e+09 cp/ml
